For 1 molecule, Kd results are on record in paper PMC9293779 (2022).

This test deals with Unmodified H3 (15–39) (Homo sapiens, matured GFP-type chromophore; AG itself is the assayed negative control. Accession is from memory; wild-type AG assumed rather than the monomeric version). The test can be described thus: ITC.

A value given as a limit tells only on which side of the number the result lay.

B1: Azami-Green (AG) protein alone (natural protein)
chain: MSVIKPEMKIKLCMRGTVNGHNFVIEGEGKGNPYEGTQILDLNVTEGAPLPFAYDILTTVFQYGNRAFTKYPADIQDYFKQTFPEGYHWERSMTYEDQGICTATSNISMRGDCFFYDIRFDGVNFPPNGPVMQKKTLKWEPSTEKMYVRDGVLKGDVNMALLLEGGGHYRCDFKTTYKAKKDVRLPDYHFVDHRIEILKHDKDYNKVKLYENAVARYSMLPSQAK
In the case of B1, the Kd was > 1 mM.

Usually Kd stands for the concentration at which binding is half-saturated.
